According to paper PMC7026398, “Structural and functional insight into the effect of AFF4 dimerization on activation of HIV-1 proviral transcription” (Cell Discovery, 2020):
Positions count from the first letter of the chain named. Numbers in names are those of the source.

B1: AFF1-THD (953-1210), wild type (domain or fragment, UniProt P51825 953-1210, looked up)
chain: GKPQVKFDKQQADLHMREAKKMKQKAELMTDRVGKAFKYLEAVLSFIECGIATESESQSSKSAYSVYSETVDLIKFIMSLKSFSDATAPTQEKIFAVLCMRCQSILNMAMFRCKKDIAIKYSRTLNKHFESSSKVAQAPSPCIASTGTPSPLSPMPSPASSVGSQSSAGSVGSSGVAATISTPVTIQNMTSSYVTITSHVLTAFDLWEQAEALTRKNKEFFARLSTNVCTLALNSSLVDLVHYTRQGFQQLQELTKTP
notes: AFF1 THD, residues 953-1210; the limits 953-1210 fit human AFF1; also called wild-type AFF1-THD; source: E. coli BL21 (DE3), purified (Ni-NTA, Hi-Trap SP HP, TEV digestion, Superdex 200); not shown: His6, N-terminal, cleaved
B2: AFF1-THD Y1145A (domain or fragment, UniProt P51825 953-1210, looked up)
chain: B1 chain with Y193A
notes: AFF1 THD, residues 953-1210, with Y1145A; also called AFF1^Y1145A; source: E. coli BL21 (DE3), purified (Ni-NTA, Hi-Trap SP HP, TEV digestion, Superdex 200); not shown: His6, N-terminal, cleaved
B3: AFF1-THD F1063A+Y1145A (domain or fragment, UniProt P51825 953-1210, looked up)
chain: B1 chain with F111A, Y193A
notes: AFF1 THD, residues 953-1210, with F1063A and Y1145A; source: E. coli BL21 (DE3), purified (Ni-NTA, Hi-Trap SP HP, TEV digestion, Superdex 200); not shown: His6, N-terminal, cleaved
B4: AFF1-THD F1063A (domain or fragment, UniProt P51825 953-1210, looked up)
chain: B1 chain with F111A
notes: AFF1 THD, residues 953-1210, with F1063A; also called AFF1^F1063A; source: E. coli BL21 (DE3), purified (Ni-NTA, Hi-Trap SP HP, TEV digestion, Superdex 200); not shown: His6, N-terminal, cleaved
B5: Flag-AFF4 F1014A, full length (natural protein)
chain: MNREDRNVLRMKERERRNQEIQQGEDAFPPSSPLFAEPYKVTSKEDKLSSRIQSMLGNYDEMKDFIGDRSIPKLVAIPKPTVPPSADEKSNPNFFEQRHGGSHQSSKWTPVGPAPSTSQSQKRSSGLQSGHSSQRTSAGSSSGTNSSGQRHDRESYNNSGSSSRKKGQHGSEHSKSRSSSPGKPQAVSSLNSSHSRSHGNDHHSKEHQRSKSPRDPDANWDSPSRVPFSSGQHSTQSFPPSLMSKSNSMLQKPTAYVRPMDGQESMEPKLSSEHYSSQSHGNSMTELKPSSKAHLTKLKIPSQPLDASASGDVSCVDEILKEMTHSWPPPLTAIHTPCKTEPSKFPFPTKESQQSNFGTGEQKRYNPSKTSNGHQSKSMLKDDLKLSSSEDSDGEQDCDKTMPRSTPGSNSEPSHHNSEGADNSRDDSSSHSGSESSSGSDSESESSSSDSEANEPSQSASPEPEPPPTNKWQLDNWLNKVNPHKVSPASSVDSNIPSSQGYKKEGREQGTGNSYTDTSGPKETSSATPGRDSKTIQKGSESGRGRQKSPAQSDSTTQRRTVGKKQPKKAEKAAAEEPRGGLKIESETPVDLASSMPSSRHKAATKGSRKPNIKKESKSSPRPTAEKKKYKSTSKSSQKSREIIETDTSSSDSDESESLPPSSQTPKYPESNRTPVKPSSVEEEDSFFRQRMFSPMEEKELLSPLSEPDDRYPLIVKIDLNLLTRIPGKPYKETEPPKGEKKNVPEKHTREAQKQASEKVSNKGKRKHKNEDDNRASESKKPKTEDKNSAGHKPSSNRESSKQSAAKEKDLLPSPAGPVPSKDPKTEHGSRKRTISQSSSLKSSSNSNKETSGSSKNSSSTSKQKKTEGKTSSSSKEVKEKAPSSSSNCPPSAPTLDSSKPRRTKLVFDDRNYSADHYLQEAKKLKHNADALSDRFEKAVYYLDAVVSFIECGNALEKNAQESKSPFPMYSETVDLIKYTMKLKNYLAPDATAADKRLTVLCLRCESLLYLRLAKLKKENALKYSKTLTEHLKNSYNNSQAPSPGLGSKAVGMPSPVSPKLSPGNSGNYSSGASSASASGSSVTIPQKIHQMAASYVQVTSNFLYATEIWDQAEQLSKEQKEFFAELDKVMGPLIFNASIMTDLVRYTRQGLHWLRQDAKLIS
B6: Flag-AFF4 Y1096A, full length (natural protein)
chain: B5 chain with A1014F, Y1096A
B7: human AFF4-THD (902-1163), wild type (domain or fragment, UniProt Q9UHB7 902-1163, looked up)
chain: RRTKLVFDDRNYSADHYLQEAKKLKHNADALSDRFEKAVYYLDAVVSFIECGNALEKNAQESKSPFPMYSETVDLIKYTMKLKNYLAPDATAADKRLTVLCLRCESLLYLRLFKLKKENALKYSKTLTEHLKNSYNNSQAPSPGLGSKAVGMPSPVSPKLSPGNSGNYSSGASSASASGSSVTIPQKIHQMAASYVQVTSNFLYATEIWDQAEQLSKEQKEFFAELDKVMGPLIFNASIMTDLVRYTRQGLHWLRQDAKLIS
notes: AFF4 THD (TPRL with Handle Region Dimerization Domain, C-terminal homology domain), human, residues 902-1163; A selenomethionyl form was used for phasing only; The general purification text tells of TEV digestion and removal of the His6-tag, but only the N-terminal tag of AFF1-THD is called removable; also called AFF-THD; THD of AFF4; source: E. coli BL21 (DE3), purified (Ni-NTA, Hi-Trap SP HP, …)
B8: AFF4-THD Y1024A (domain or fragment, human, UniProt Q9UHB7 902-1163, looked up)
chain: B7 chain with Y123A
notes: AFF4 THD, human, residues 902-1163, with Y1024A; PDB 6K7P is the wild-type parent of the same limits; source: E. coli BL21 (DE3), purified (Ni-NTA, Hi-Trap SP HP, Superdex 200)
B9: AFF4-THD T1100A+Y1096F (domain or fragment, human, UniProt Q9UHB7 902-1163, looked up)
chain: B7 chain with Y195F, T199A
notes: AFF4 THD, human, residues 902-1163, with T1100A and Y1096F; PDB 6K7P is the wild-type parent of the same limits; source: E. coli BL21 (DE3), purified (Ni-NTA, Hi-Trap SP HP, Superdex 200)
B10: AFF4-THD S1025A (domain or fragment, human, UniProt Q9UHB7 902-1163, looked up)
chain: B7 chain with S124A
notes: AFF4 THD, human, residues 902-1163, with S1025A; PDB 6K7P is the wild-type parent of the same limits; source: E. coli BL21 (DE3), purified (Ni-NTA, Hi-Trap SP HP, Superdex 200)
B11: AFF4-THD V1097A (domain or fragment, human, UniProt Q9UHB7 902-1163, looked up)
chain: B7 chain with V196A
notes: AFF4 THD, human, residues 902-1163, with V1097A; PDB 6K7P is the wild-type parent of the same limits; also called AFF4-THD^Val1097A; Val1097A; source: E. coli BL21 (DE3), purified (Ni-NTA, Hi-Trap SP HP, Superdex 200)
B12: Flag-AFF1 F1063A+Y1145A+V1146A+V1152A, full length (natural protein)
chain: MAAQSSLYNDDRNLLRIREKERRNQEAHQEKEAFPEKIPLFGEPYKTAKGDELSSRIQNMLGNYEEVKEFLSTKSHTHRLDASENRLGKPKYPLIPDKGSSIPSSSFHTSVHHQSIHTPASGPLSVGNISHNPKMAQPRTEPMPSLHAKSCGPPDSQHLTQDRLGQEGFGSSHHKKGDRRADGDHCASVTDSAPERELSPLISLPSPVPPLSPIHSNQQTLPRTQGSSKVHGSSNNSKGYCPAKSPKDLAVKVHDKETPQDSLVAPAQPPSQTFPPPSLPSKSVAMQQKPTAYVRPMDGQDQAPSESPELKPLPEDYRQQTFEKTDLKVPAKAKLTKLKMPSQSVEQTYSNEVHCVEEILKEMTHSWPPPLTAIHTPSTAEPSKFPFPTKDSQHVSSVTQNQKQYDTSSKTHSNSQQGTSSMLEDDLQLSDSEDSDSEQTPEKPPSSSAPPSAPQSLPEPVASAHSSSAESESTSDSDSSSDSESESSSSDSEENEPLETPAPEPEPPTTNKWQLDNWLTKVSQPAAPPEGPRSTEPPRRHPESKGSSDSATSQEHSESKDPPPKSSSKAPRAPPEAPHPGKRSCQKSPAQQEPPQRQTVGTKQPKKPVKASARAGSRTSLQGEREPGLLPYGSRDQTSKDKPKVKTKGRPRAAASNEPKPAVPPSSEKKKHKSSLPAPSKALSGPEPAKDNVEDRTPEHFALVPLTESQGPPHSGSGSRTSGCRQAVVVQEDSRKDRLPLPLRDTKLLSPLRDTPPPQSLMVKITLDLLSRIPQPPGKGSRQRKAEDKQPPAGKKHSSEKRSSDSSSKLAKKRKGEAERDCDNKKIRLEKEIKSQSSSSSSSHKESSKTKPSRPSSQSSKKEMLPPPPVSSSSQKPAKPALKRSRREADTCGQDPPKSASSTKSNHKDSSIPKQRRVEGKGSRSSSEHKGSSGDTANPFPVPSLPNGNSKPGKPQVKFDKQQADLHMREAKKMKQKAELMTDRVGKAFKYLEAVLSFIECGIATESESQSSKSAYSVYSETVDLIKFIMSLKSFSDATAPTQEKIFAVLCMRCQSILNMAMARCKKDIAIKYSRTLNKHFESSSKVAQAPSPCIASTGTPSPLSPMPSPASSVGSQSSAGSVGSSGVAATISTPVTIQNMTSSAATITSHALTAFDLWEQAEALTRKNKEFFARLSTNVCTLALNSSLVDLVHYTRQGFQQLQELTKTP

Key:
[1] = target: the molecule itself; assay: SEC; analytical gel filtration, Superdex 75 10/300 increase, 25 mM Tris pH 8.0, 150 mM NaCl, 2 mM DTT; 6 mg/ml, 100 μl injected; self-association, dimer or monomer by elution volume
[2] = target: Flag-AFF4 F1014A, full length (human) (UniProt Q9UHB7)
[3] = target: Flag-AFF4 Y1096A, full length (human) (UniProt Q9UHB7)
[4] = target: Flag-AFF1 F1063A+Y1145A+V1146A+V1152A, full length (UniProt P51825)

Binder	binding result [1]	also measured
B1	–	stoichiometry N [1]: 2
B2	binds	–
B3	binds	–
B4	binds	–
B5	–	HIV-LTR-luciferase reporter in NH1 cells, overexpressed Flag-AFF4 mutant against wild type (% less than wild type) [2]: 10
B6	–	HIV-LTR-luciferase reporter in NH1 cells, overexpressed Flag-AFF4 mutant against wild type (fold less than wild type) [3]: 1
B7	–	stoichiometry N [1]: 2
B8	binds	–
B9	binds	–
B10	binds	–
B11	binds	–
B12	–	HIV-LTR-luciferase reporter in NH1 cells, overexpressed Flag-AFF1 mutant against wild-type AFF1 (fold less than wild-type AFF1) [4]: 1
